Source: article PMC3310434 (Tuberculosis (Edinburgh, Scotland), 2011)

What was measured:
[1] = target: the molecule itself; experiment: dynamic light scattering
[2] = target: T1, VapC-3 toxin of Mtb VapBC-3 (Rv0300-Rv0301) (Mycobacterium tuberculosis, UniProt P9WFB9 2-141); experiment: crystal structure
T1 sequence: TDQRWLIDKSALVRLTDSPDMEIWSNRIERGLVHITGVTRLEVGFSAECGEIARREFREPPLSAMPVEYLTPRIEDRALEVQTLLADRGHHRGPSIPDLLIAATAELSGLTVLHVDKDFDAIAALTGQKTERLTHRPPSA

[3] = target: the molecule itself; experiment: crystal structure
[4] = target: the molecule itself; experiment: crystal structure; remark: listed apart in the source

B1: Rv0812, putative Mtb 4-amino-4-deoxychorismate (ADC) lyase (PabC) (enzyme)
chain: MVVTLDGEILQPGMPLLHADDLAAVRGDGVFETLLVRDGRACLVEAHLQRLTQSARLMDLPEPDLPRWRRAVEVATQRWVASTADEGALRLIYSRGREGGSAPTAYVMVSPVPARVIGARRDGVSAITLDRGLPADGGDAMPWLIASAKTLSYAVNMAVLRHAARQGAGDVIFVSTDGYVLEGPRSTVVIATDGDQGGGNPCLLTPPPWYPILRGTTQQALFEVARAKGYDCDYRALRVADLFDSQGIWLVSSMTLAARVHTLDGRRLPRTPIAEVFAELVDAAIVSDR
stoichiometry N [1]: 2

B2: VapB-3 antitoxin of Mtb VapBC-3 (Rv0300-Rv0301) (natural protein)
chain: MSDVLIRDIPDDVLASLDAIAARLGLSRTEYIRRRLAQDAQTARVTVTAADLRRLRGAVAGLGDPELMRQAWR
binding result [2]: binds
binding result [3]: binds

B3: Mtb fumarase (enzyme)
chain: MAVDADSANYRIEHDTMGEVRVPAKALWRAQTQRAVENFPISGRGLERTQIRALGLLKGACAQVNSDLGLLAPEKADAIIAAAAEIADGQHDDQFPIDVFQTGSGTSSNMNTNEVIASIAAKGGVTLHPNDDVNMSQSSNDTFPTATHIAATEAAVAHLIPALQQLHDALAAKALDWHTVVKSGRTHLMDAVPVTLGQEFSGYARQIEAGIERVRACLPRLGELAIGGTAVGTGLNAPDDFGVRVVAVLVAQTGLSELRTAANSFEAQAARDGLVEASGALRTIAVSLTKIANDIRWMGSGPLTGLAEIQLPDLQPGSSIMPGKVNPVLPEAVTQVAAQVIGNDAAIAWGGANGAFELNVYIPMMARNILESFKLLTNVSRLFAQRCIAGLTANVEHLRRLAESSPSIVTPLNSAIGYEEAAAVAKQALKERKTIRQTVIDRGLIGDRLSIEDLDRRLDVLAMAKAEQLDSDRL
stoichiometry N [4]: 4
